# Results taken from IntAct's records for PubMed 31515488.
# B1: Protein LDOC1 (Homo sapiens), O95751 (parent)
# chain: MVDELVLLLHALLMRHRALSIENSQLMEQLRLLVCERASLLRQVRPPSCPVPFPETFNGESSRLPEFIVQTASYMLVNENRFCNDAMKVAFLISLLTGEAEEWVVPYIEMDSPILGDYRAFLDEMKQCFGWDDDEDDDDEEEEDDY
# partner: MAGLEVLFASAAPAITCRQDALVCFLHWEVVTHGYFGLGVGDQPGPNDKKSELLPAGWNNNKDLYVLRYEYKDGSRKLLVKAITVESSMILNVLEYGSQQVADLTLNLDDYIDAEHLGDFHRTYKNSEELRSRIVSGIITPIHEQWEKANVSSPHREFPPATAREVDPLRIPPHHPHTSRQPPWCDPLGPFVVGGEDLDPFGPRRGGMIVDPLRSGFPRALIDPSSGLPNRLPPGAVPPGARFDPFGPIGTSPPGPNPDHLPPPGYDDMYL
# B2: Caspase recruitment domain-containing protein 9 (Homo sapiens), Q9H257 (parent)
# chain: MSDYENDDECWSVLEGFRVTLTSVIDPSRITPYLRQCKVLNPDDEEQVLSDPNLVIRKRKVGVLLDILQRTGHKGYVAFLESLELYYPQLYKKVTGKEPARVFSMIIDASGESGLTQLLMTEVMKLQKKVQDLTALLSSKDDFIKELRVKDSLLRKHQERVQRLKEECEAGSRELKRCKEENYDLAMRLAHQSEEKGAALMRNRDLQLEIDQLKHSLMKAEDDCKVERKHTLKLRHAMEQRPSQELLWELQQEKALLQARVQELEASVQEGKLDRSSPYIQVLEEDWRQALRDHQEQANTIFSLRKDLRQGEARRLRCMEEKEMFELQCLALRKDSKMYKDRIEAILLQMEEVAIERDQAIATREELHAQHARGLQEKDALRKQVRELGEKADELQLQVFQCEAQLLAVEGRLRRQQLETLVLSSDLEDGSPRRSQELSLPQDLEDTQLSDKGCLAGGGSPKQPFAALHQEQVLRNPHDAGLSSGEPPEKERRRLKESFENYRRKRALRKMQKGWRQGEEDRENTTGSDNTDTEGS
# partner: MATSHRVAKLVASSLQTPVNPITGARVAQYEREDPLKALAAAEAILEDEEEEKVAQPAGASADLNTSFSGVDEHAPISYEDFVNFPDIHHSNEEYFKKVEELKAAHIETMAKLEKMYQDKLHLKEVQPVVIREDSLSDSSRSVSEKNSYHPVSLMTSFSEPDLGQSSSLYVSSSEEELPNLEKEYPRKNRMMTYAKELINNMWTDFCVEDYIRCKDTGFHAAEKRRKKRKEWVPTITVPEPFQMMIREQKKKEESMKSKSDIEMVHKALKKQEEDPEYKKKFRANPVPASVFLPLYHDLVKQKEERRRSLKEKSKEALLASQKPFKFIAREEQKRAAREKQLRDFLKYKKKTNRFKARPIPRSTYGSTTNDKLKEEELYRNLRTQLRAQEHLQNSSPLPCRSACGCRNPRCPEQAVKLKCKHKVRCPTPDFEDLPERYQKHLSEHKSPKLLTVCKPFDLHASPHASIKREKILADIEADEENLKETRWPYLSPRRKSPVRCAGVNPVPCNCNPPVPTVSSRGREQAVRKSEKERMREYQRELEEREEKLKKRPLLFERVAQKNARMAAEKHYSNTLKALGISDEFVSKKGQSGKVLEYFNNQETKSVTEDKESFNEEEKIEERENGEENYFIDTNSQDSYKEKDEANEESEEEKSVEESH
# B3: Paraneoplastic antigen Ma2 (Homo sapiens), Q9UL42 (parent)
# chain: MALALLEDWCRIMSVDEQKSLMVTGIPADFEEAEIQEVLQETLKSLGRYRLLGKIFRKQENANAVLLELLEDTDVSAIPSEVQGKGGVWKVIFKTPNQDTEFLERLNLFLEKEGQTVSGMFRALGQEGVSPATVPCISPELLAHLLGQAMAHAPQPLLPMRYRKLRVFSGSAVPAPEEESFEVWLEQATEIVKEWPVTEAEKKRWLAESLRGPALDLMHIVQADNPSISVEECLEAFKQVFGSLESRRTAQVRYLKTYQEEGEKVSAYVLRLETLLRRAVEKRAIPRRIADQVRLEQVMAGATLNQMLWCRLRELKDQGPPPSFLELMKVIREEEEEEASFENESIEEPEERDGYGRWNHEGDD
# B4: G-patch domain and KOW motifs-containing protein (Homo sapiens), Q92917 (parent)
# chain: MADSKEGVLPLTAASTAPISFGFTRTSARRRLADSGDGAGPSPEEKDFLKTVEGRELQSVKPQEAPKELVIPLIQNGHRRQPPARPPGPSTDTGALADGVVSQAVKELIAESKKSLEERENAGVDPTLAIPMIQKGCTPSGEGADSEPRAETVPEEANYEAVPVEAYGLAMLRGMGWKPGEGIGRTFNQVVKPRVNSLRPKGLGLGANLTEAQALTPTGPSRMPRPDEEQEKDKEDQPQGLVPGGAVVVLSGPHRGLYGKVEGLDPDNVRAMVRLAVGSRVVTVSEYYLRPVSQQEFDKNTLDLRQQNGTASSRKTLWNQELYIQQDNSERKRKHLPDRQDGPAAKSEKAAPRSQHWLHRDLRVRFVDNMYKGGQYYNTKMIIEDVLSPDTCVCRTDEGRVLEGLREDMLETLVPKAEGDRVMVVLGPQTGRVGHLLSRDRARSRALVQLPRENQVVELHYDAICQYMGPSDTDDD
# partner: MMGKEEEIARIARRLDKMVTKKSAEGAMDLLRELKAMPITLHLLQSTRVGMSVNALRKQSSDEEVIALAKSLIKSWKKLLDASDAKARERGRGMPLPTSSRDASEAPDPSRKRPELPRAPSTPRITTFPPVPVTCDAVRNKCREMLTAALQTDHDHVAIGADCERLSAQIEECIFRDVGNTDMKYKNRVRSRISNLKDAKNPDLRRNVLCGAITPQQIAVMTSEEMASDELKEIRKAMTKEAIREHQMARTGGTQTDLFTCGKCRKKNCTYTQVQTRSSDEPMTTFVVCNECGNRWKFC
# B5: Notch homolog 2 N-terminal-like protein A (Homo sapiens), Q7Z3S9 (parent)
# chain: MCVTYHNGTGYCKCPEGFLGEYCQHRDPCEKNRCQNGGTCVAQAMLGKATCRCASGFTGEDCQYSTSHPCFVSRPCLNGGTCHMLSRDTYECTCQVGFTGKECQWTDACLSHPCANGSTCTTVANQFSCKCLTGFTGQKCETDVNECDIPGHCQHGGTCLNLPGSYQCQCLQGFTGQYCDSLYVPCAPSPCVNGGTCRQTGDFTFECNCLPETVRRGTELWERDREVWNGKEHDEN
# partner: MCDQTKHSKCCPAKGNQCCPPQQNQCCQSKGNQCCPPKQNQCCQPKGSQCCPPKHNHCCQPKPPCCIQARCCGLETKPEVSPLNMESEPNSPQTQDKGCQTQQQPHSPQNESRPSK
# B6: E3 ubiquitin-protein ligase Midline-1 (Homo sapiens), O15344 (parent)
# chain: METLESELTCPICLELFEDPLLLPCAHSLCFNCAHRILVSHCATNESVESITAFQCPTCRHVITLSQRGLDGLKRNVTLQNIIDRFQKASVSGPNSPSETRRERAFDANTMTSAEKVLCQFCDQDPAQDAVKTCVTCEVSYCDECLKATHPNKKPFTGHRLIEPIPDSHIRGLMCLEHEDEKVNMYCVTDDQLICALCKLVGRHRDHQVAALSERYDKLKQNLESNLTNLIKRNTELETLLAKLIQTCQHVEVNASRQEAKLTEECDLLIEIIQQRRQIIGTKIKEGKVMRLRKLAQQIANCKQCIERSASLISQAEHSLKENDHARFLQTAKNITERVSMATASSQVLIPEINLNDTFDTFALDFSREKKLLECLDYLTAPNPPTIREELCTASYDTITVHWTSDDEFSVVSYELQYTIFTGQANVVSLCNSADSWMIVPNIKQNHYTVHGLQSGTKYIFMVKAINQAGSRSSEPGKLKTNSQPFKLDPKSAHRKLKVSHDNLTVERDESSSKKSHTPERFTSQGSYGVAGNVFIDSGRHYWEVVISGSTWYAIGLAYKSAPKHEWIGKNSASWALCRCNNNWVVRHNSKEIPIEPAPHLRRVGILLDYDNGSIAFYDALNSIHLYTFDVAFAQPVCPTFTVWNKCLTIITGLPIPDHLDCTEQLP
# partner: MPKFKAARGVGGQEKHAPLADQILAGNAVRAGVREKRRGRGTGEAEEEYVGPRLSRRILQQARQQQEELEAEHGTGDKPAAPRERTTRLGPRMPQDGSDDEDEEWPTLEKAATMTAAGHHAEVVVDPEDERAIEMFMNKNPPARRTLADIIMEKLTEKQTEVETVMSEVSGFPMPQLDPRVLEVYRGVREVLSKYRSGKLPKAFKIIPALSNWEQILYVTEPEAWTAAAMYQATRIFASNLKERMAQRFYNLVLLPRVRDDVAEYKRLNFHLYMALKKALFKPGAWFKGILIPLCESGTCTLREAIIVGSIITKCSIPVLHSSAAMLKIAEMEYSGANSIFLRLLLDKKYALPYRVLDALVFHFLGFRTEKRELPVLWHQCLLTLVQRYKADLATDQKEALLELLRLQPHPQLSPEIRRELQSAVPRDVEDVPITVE
# B7: C-type lectin domain family 1 member A (Homo sapiens), Q8NC01 (parent)
# chain: MQAKYSSTRDMLDDDGDTTMSLHSQGSATTRHPEPRRTEHRAPSSTWRPVALTLLTLCLVLLIGLAALGLLFFQYYQLSNTGQDTISQMEERLGNTSQELQSLQVQNIKLAGSLQHVAEKLCRELYNKAGAHRCSPCTEQWKWHGDNCYQFYKDSKSWEDCKYFCLSENSTMLKINKQEDLEFAASQSYSEFFYSYWTGLLRPDSGKAWLWMDGTPFTSELFHIIIDVTSPRSRDCVAILNGMIFSKDCKELKRCVCERRAGMVKPESLHVPPETLGEGD
# partner: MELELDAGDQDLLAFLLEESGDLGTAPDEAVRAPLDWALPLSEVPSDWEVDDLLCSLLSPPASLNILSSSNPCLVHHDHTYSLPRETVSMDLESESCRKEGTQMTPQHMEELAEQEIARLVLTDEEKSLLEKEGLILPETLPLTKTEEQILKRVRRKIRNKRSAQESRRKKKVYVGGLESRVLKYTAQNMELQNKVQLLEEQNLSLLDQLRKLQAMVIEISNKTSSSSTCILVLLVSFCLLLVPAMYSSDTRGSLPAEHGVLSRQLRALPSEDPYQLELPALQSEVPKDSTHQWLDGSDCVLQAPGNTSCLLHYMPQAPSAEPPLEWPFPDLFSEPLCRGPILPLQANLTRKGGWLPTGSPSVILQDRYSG
# Variants of: B1
# Settings: with psmf1_human PSMF1, Q92530
row,Variant,effect of a mutation on the interaction
1,L12H,disrupting interaction strength

# Variants of: B2
# Settings: with FAM161A
row,Variant,effect of a mutation on the interaction
1,V385L,with no effect

# Variants of: B3
# Settings: with sdcb1_human SDCBP
row,Variant,effect of a mutation on the interaction
1,E186K,with no effect

# Variants of: B3
# Settings: with psa1_human PSMA1, P25786
# psa1_human PSMA1, P25786, sequence (P25786 whole entry): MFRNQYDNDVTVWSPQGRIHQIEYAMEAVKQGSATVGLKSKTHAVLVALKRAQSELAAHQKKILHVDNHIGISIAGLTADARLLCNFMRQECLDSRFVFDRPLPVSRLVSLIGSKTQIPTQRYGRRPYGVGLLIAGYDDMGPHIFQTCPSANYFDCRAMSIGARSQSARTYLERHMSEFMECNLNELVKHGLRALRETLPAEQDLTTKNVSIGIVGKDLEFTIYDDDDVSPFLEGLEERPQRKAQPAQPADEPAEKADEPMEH
row,Variant,effect of a mutation on the interaction
1,E186K,with no effect

# Variants of: B4
# Settings: with tcea2_human TCEA2, Q15560
row,Variant,effect of a mutation on the interaction
1,V393A,with no effect
2,A129T,with no effect

# Variants of: B5
# Settings: with mcsp_human SMCP
row,Variant,effect of a mutation on the interaction
1,R74Q,with no effect
2,A115T,with no effect

# Variants of: B6
# Settings: with byst_human BYSL
row,Variant,effect of a mutation on the interaction
1,D84N,disrupting interaction strength

# Variants of: B7
# Settings: with creb3_human CREB3, O43889
row,Variant,effect of a mutation on the interaction
1,P272S,with no effect
2,G26A,with no effect
